Tests used:
tumour cell line LL/2 = experiment: In vivo LL/2 tumour model in C57Bl/6 mice; conditions: 200 mg/kg IP for 7 days
Description: More particularly, mice strain C57Bl/6 (male, 4-weeks, initial body weight˜20-22 g) were inoculated with tumour cell line LL/2, at S.C. 10^5 per mouse. After 14 days post-implantation, the mice were treated with D-TW or D-TW-Scrambled for 7 days (at 200 mg/kg), via intraperitoneal (IP) injection.

[1] = biological target: T1, human PD-L1 (PD-1/PD-L1 interaction) (Homo sapiens, UniProt Q9NZQ7); experiment: Competition ELISA: peptide blocking of recombinant human PD-1 Fc binding to plate-coated human PD-L1 Fc; conditions: peptide 0.008 μg/ml to 10 μg/ml, human PD-1 Fc 10 ng/ml; FIG. 1
T1 construct: Fc
T1 sequence (Q9NZQ7 19-238 limits assumed): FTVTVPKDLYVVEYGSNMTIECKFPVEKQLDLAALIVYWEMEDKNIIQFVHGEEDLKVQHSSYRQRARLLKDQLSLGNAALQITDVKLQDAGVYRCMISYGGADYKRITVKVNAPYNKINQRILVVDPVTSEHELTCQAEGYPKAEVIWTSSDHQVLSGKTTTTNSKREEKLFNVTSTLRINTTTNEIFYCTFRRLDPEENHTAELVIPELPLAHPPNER
Description: The binding of the WT or TF peptide to human PD-L1 was tested via competition ELISA. Varying concentrations of each peptide (0.008 μg/ml to 10 μg/ml) were mixed with a fixed concentration of recombinant human PD-1 Fc (10 ng/ml) and bound to a human PD-L1 Fc coated 96-well Immuno Maxisorp flat bottom plate. Binding was detected via a biotinylated anti-PD-1 antibody, streptavidin-horseradish peroxidase (HRP), and 3,3′,5,5′-Tetramethylbenzidine (TMB) substrate. Absorbance measurements were collected at 450 nm via a plate reader. The absorbance readings were plotted against the test peptide concentration.
More particularly, in this Example and referring to FIGS. 5A and 5B, WT represents SEQ ID NO:1; TF represents SEQ ID NO:2; ET represents SEQ ID NO:25; YT represents SEQ ID NO:28; and TW represents the reverse sequence of WT with D-amino acids, SEQ ID NO:34 (also referred to herein as “D-TW”). Different combination of such PD-L1 blocking peptides (3 and 10 μM) were mixed with recombinant human PD-1 Fc and bound to a human PD-L1 Fc coated 96-well Immuno Maxisorp flat bottom plate. Binding was detected via a biotinylated anti-PD-1 antibody, streptavidin-horseradish peroxidase (HRP), and 3,3′,5,5′-Tetramethylbenzidine (TMB) substrate. Absorbance measurements were collected at 450 nm via a plate reader. […]

PD-1/PD-L1 interaction [2] = biological target: T2, PD-1/PD-L1 interaction (Homo sapiens, UniProt Q9NZQ7); experiment: IL-2 production by PHA/PMA-activated Jurkat T cells co-cultured with recombinant human PD-L1 Fc (IL-2 ELISA); type: cell-based; set-up: Fc; host or cells: Jurkat T cells (PD-1 side); conditions: 1-10 μg/ml peptide, PD-L1 Fc 8 μg/ml, 37° C. for 48 hours; FIG. 2
Description: 5×10^4 Jurkat T cells were activated with 1 μg/ml of phytohemagglutinin (PHA) and 50 ng/ml of phorbol 12-myristate 13-acetate (PMA) and co-cultured with recombinant human PD-L1 Fc (8 μg/ml) plus 1-10 μg/ml of WT (FIG. 2A), 1-10 μg/ml of TF (FIG. 2B), or 1-10 μg/ml of combined WT and TF (FIG. 2C) peptide at 37° C. for 48 hours. Cell culture supernatant was harvested and interleukin-2 (IL-2) production from Jurkat T cells was assessed by IL-2 ELISA. The numbers shown above each bar in FIG. 2 represent IL-2 concentrations.
Target sequence in this assay (Q9NZQ7 19-238 limits assumed): as above

PD-1/PD-L1 interaction [3] = biological target: T2, PD-1/PD-L1 interaction; experiment: IL-2 production by activated Jurkat T cells co-cultured with PD-L1-expressed U87 tumor cells (IL-2 ELISA); type: cell-based; set-up: endogenous in cells; host or cells: U87 tumor cells (PD-L1); Jurkat T cells (PD-1); conditions: for IL-2 concentration: different peptide concentrations, 37° C. for 48 hours, FIGS. 3A-3C; for blocking of PD-1/PD-L1 interaction (summary of the foregoing assay results): summary of FIGS. 1-3, the combination is compared with a single test peptide treatment
Description: In this Example, 5×10^4 Jurkat T cells were activated with […] of PHA and 50 ng/ml of PMA and co-cultured with 3×10^5 PD-L1-expressed U87 tumor cells mixed with different concentrations of WT (FIG. 3A), TF (FIG. 3B), or combined WT and TF (FIG. 3C) peptide at 37° C. for 48 hours. Cell culture supernatants were harvested and IL-2 production from the Jurkat T cells was assessed by IL-2 ELISA. The numbers shown above each bar in FIGS. 3A-3C represent IL-2 concentrations. […] Moreover, as shown in FIGS. 3A-3C, as the concentrations of the test peptides were increased, an increase in IL-2 concentration was observed.
Target sequence in this assay (Q9NZQ7 19-290): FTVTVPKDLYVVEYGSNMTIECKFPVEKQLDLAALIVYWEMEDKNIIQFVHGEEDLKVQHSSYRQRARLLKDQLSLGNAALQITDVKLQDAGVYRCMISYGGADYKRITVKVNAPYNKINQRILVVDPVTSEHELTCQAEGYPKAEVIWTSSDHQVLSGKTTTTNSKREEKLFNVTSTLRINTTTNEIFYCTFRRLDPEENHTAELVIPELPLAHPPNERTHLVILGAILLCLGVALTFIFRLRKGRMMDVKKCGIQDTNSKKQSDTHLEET

Compound	toxicity to mice (tumour cell line LL/2)	percent (%) inhibition of PD-1/PD-L1 interaction [1]	IL-2 concentration (PD-1/PD-L1 interaction [2])	IL-2 concentration (PD-1/PD-L1 interaction [3])	blocking of PD-1/PD-L1 interaction (summary of the foregoing assay results) (PD-1/PD-L1 interaction [3])
CSCC[C@@H](NC(=O)[C@@H](CO)NC(=O)[C@H]1CCCN1C(=O)[C@@H](CO)NC(=O)[C@@H](CC(N)=O)NC(=O)[C@@H](CCC(N)=O)NC(=O)[C@H](N)[C@H](C)O)C(=O)N[C@H](CCCNC(=N)N)C(=O)N[C@H](Cc1ccc(O)cc1)C(=O)N[C@H](Cc1c[nH]c2ccccc12)C(=O)O [D-TW, TQNSPSMRYW]	generally non-toxic	–	–	–	–
TAHPSPSPRSAGQF [TF]	–	the percent (%) inhibition increased	yielded an increase in IL-2 concentration	yielded an increase in IL-2 concentration	able to block PD-1/PD-L1 interaction
WYRMSPSNQT [WT]	–	the percent (%) inhibition increased	–	yielded an increase in IL-2 concentration	able to block PD-1/PD-L1 interaction

From patent publication US11384119B2, “Compositions and methods for inhibiting CD279 interactions” (priority 2015, dated 2022)
